Reference: IntAct's records for PubMed 17053785

B1: Partitioning defective 3 homolog (Homo sapiens), Q8TEW0 (parent)
chain: MKVTVCFGRTRVVVPCGDGHMKVFSLIQQAVTRYRKAIAKDPNYWIQVHRLEHGDGGILDLDDILCDVADDKDRLVAVFDEQDPHHGGDGTSASSTGTQSPEIFGSELGTNNVSAFQPYQATSEIEVTPSVLRANMPLHVRRSSDPALIGLSTSVSDSNFSSEEPSRKNPTRWSTTAGFLKQNTAGSPKTCDRKKDENYRSLPRDTSNWSNQFQRDNARSSLSASHPMVGKWLEKQEQDEDGTEEDNSRVEPVGHADTGLEHIPNFSLDDMVKLVEVPNDGGPLGIHVVPFSARGGRTLGLLVKRLEKGGKAEHENLFRENDCIVRINDGDLRNRRFEQAQHMFRQAMRTPIIWFHVVPAANKEQYEQLSQSEKNNYYSSRFSPDSQYIDNRSVNSAGLHTVQRAPRLNHPPEQIDSHSRLPHSAHPSGKPPSAPASAPQNVFSTTVSSGYNTKKIGKRLNIQLKKGTEGLGFSITSRDVTIGGSAPIYVKNILPRGAAIQDGRLKAGDRLIEVNGVDLVGKSQEEVVSLLRSTKMEGTVSLLVFRQEDAFHPRELNAEPSQMQIPKETKAEDEDIVLTPDGTREFLTFEVPLNDSGSAGLGVSVKGNRSKENHADLGIFVKSIINGGAASKDGRLRVNDQLIAVNGESLLGKTNQDAMETLRRSMSTEGNKRGMIQLIVARRISKCNELKSPGSPPGPELPIETALDDRERRISHSLYSGIEGLDESPSRNAALSRIMGESGKYQLSPTVNMPQDDTVIIEDDRLPVLPPHLSDQSSSSSHDDVGFVTADAGTWAKAAISDSADCSLSPDVDPVLAFQREGFGRQSMSEKRTKQFSDASQLDFVKTRKSKSMDLGIADETKLNTVDDQKAGSPSRDVGPSLGLKKSSSLESLQTAVAEVTLNGDIPFHRPRPRIIRGRGCNESFRAAIDKSYDKPAVDDDDEGMETLEEDTEESSRSGRESVSTASDQPSHSLERQMNGNQEKGDKTDRKKDKTGKEKKKDRDKEKDKMKAKKGMLKGLGDMFRFGKHRKDDKIEKTGKIKIQESFTSEEERIRMKQEQERIQAKTREFRERQARERDYAEIQDFHRTFGCDDELMYGGVSSYEGSMALNARPQSPREGHMMDALYAQVKKPRNSKPSPVDSNRSTPSNHDRIQRLRQEFQQAKQDEDVEDRRRTYSFEQPWPNARPATQSGRHSVSVEVQMQRQRQEERESSQQAQRQYSSLPRQSRKNASSVSQDSWEQNYSPGEGFQSAKENPRYSSYQGSRNGYLGGHGFNARVMLETQELLRQEQRRKEQQMKKQPPSEGPSNYDSYKKVQDPSYAPPKGPFRQDVPPSPSQVARLNRLQTPEKGRPFYS

Variants of: B1
Settings: with csk_human CSK

| effect of a mutation on the interaction | Variant |
| --- | --- |
| disrupting interaction | Y1127F |
